Biological target: T1, human PD-L1 expressed on the surface of SC-islet cells (human, UniProt Q9NZQ7 19-290)
T1 construct: whole, on cells; also called PD-L1 on B2P SC-islet cells
Test: flow cytometry, labelled PD-1-Fc on dissociated SC-islet cells

T1 sequence (Q9NZQ7 19-290): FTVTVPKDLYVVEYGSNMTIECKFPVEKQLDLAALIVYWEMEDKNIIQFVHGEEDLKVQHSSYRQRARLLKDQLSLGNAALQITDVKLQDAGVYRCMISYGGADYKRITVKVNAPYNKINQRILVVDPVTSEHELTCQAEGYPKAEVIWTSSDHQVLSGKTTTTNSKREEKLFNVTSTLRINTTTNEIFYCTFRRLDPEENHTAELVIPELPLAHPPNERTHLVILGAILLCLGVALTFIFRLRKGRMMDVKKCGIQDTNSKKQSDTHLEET

B1: PE-conjugated mouse PD1-Fc (Fc fusion, UniProt Q02242 25-167, looked up)
chain: LEVPNGPWRSLTFYPAWLTVSEGANATFTCSLSNWSEDLMLNWNRLSPSNQTEKQAAFCNGLSQPVQDARFQIIQLPNRHDFHMNILDTRRNDSGIYLCGAISLHPKAKIEESPGAELVVTERILETSTRYPSPSPKPEGRFQ
modifications: PE-conjugated (fluorescently labelled)
notes: It says only 'fluorescently labelled, soluble' PD-1-Fc; also called soluble mouse PD-1-Fc; soluble mouse PD-1; not shown: Fc part
Does B1 bind?
Result: binds

Reference: patent US20250177453A1 (Harvard, published 2025)
